Laboratory results published in patent publication US6558922B1, “Methods and compositions for production of floral scent compounds” (Purdue Research Foundation, priority 1999, dated 2003).
Where two headings read alike, the source gives them in different places.

What was measured:
E. coli BAMT protein = biological target: T1, E. coli BAMT protein (Antirrhinum majus, UniProt Q9FYZ9); test: Product inhibition kinetics of methylation reaction by SAH
T1 sequence (Q9FYZ9 1-364): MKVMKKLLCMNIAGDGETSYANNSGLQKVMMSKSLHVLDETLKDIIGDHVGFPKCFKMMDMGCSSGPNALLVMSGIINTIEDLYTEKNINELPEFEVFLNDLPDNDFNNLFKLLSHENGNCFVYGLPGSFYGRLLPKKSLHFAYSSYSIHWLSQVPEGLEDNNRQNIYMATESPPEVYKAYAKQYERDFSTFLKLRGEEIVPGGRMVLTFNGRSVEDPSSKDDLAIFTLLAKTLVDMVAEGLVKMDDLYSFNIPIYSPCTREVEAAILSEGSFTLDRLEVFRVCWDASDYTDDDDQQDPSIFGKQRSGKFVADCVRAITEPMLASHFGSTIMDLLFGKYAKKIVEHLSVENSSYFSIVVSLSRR
Excerpt: Linear regressions were fitted to the data in double-reciprocal plots. Replots of the data were used to determine the kinetic parameters.

BAMT [1] = test: Effectors: BAMT enzyme assay with cations in assay buffer; type: biochemical, Antirrhinum majus; conditions: for Stimulation of BAMT activity (factor): cation at 5 mM in assay buffer
BAMT [2] = biological target: T2, BAMT (Antirrhinum majus, UniProt Q9FYZ9); test: BAMT enzyme assay, substrate specificity of plant-purified BAMT (fraction after MonoQ); type: biochemical; conditions: plant BAMT purified through MonoQ, compound tested as substrate instead of benzoic acid
T2 construct: The enzyme activity was purified from upper and lower petal lobes of 5- to 10-day-old snapdragon flowers; from tissue; host or cells: upper and lower petal lobes of 5- to 10-day-old snapdragon flowers
T2 sequence (Q9FYZ9 1-364): T1 sequence (Q9FYZ9 1-364)
Excerpt: The raw data (counts per minute) were converted to picokatals (picomoles of product produced per second) based on the specific activity of the substrate and efficiency of counting. Controls included assays with boiled protein extracts and without substrate, and background radioactivity produced in such assays was subtracted from all of the results.
The enzyme activity was purified from upper and lower petal lobes of 5- to 10-day-old snapdragon flowers in a series of chromatographic steps involving a DEAE anion exchange column (DE53, Whatman International, Maidstone, England), phenyl Sepharose 6FF (low sub, level of phenyl substitution 20 μmole per ml gel) column (Pharmacia Biotech, Piscataway, N.J.), and another anion exchange column, MonoQ, on Pharmacia's fast-performance liquid chromatography system. A complete description of the purification protocol is described in Example 7.

BAMT [3] = biological target: T2, BAMT; test: BAMT activity with different substrates in lysates of E. coli expressing BAMT cDNA; type: biochemical; conditions: lysates of E. coli cells expressing BAMT
Excerpt: The raw data (counts per minute) were converted to picokatals (picomoles of product produced per second) based on the specific activity of the substrate and efficiency of counting.
(Yamaguchi et al., 1996).

BAMT [4] = biological target: T2, BAMT; test: Specific activity of BAMT purified from snapdragon petals; type: biochemical; conditions: from 25 g fresh petal material after Mono-Q
Experimental: After the enzyme was loaded, the column was washed with 3 mL 300 mM KCl in buffer A and eluted with a linear reverse gradient (4 mL) from 300 mM KCl in buffer A to water followed by an additional 11 mL of water. Fractions of 0.7 ml were collected into tubes containing 100 μL 1 M KCl, 100 μL glycerol, 100 μL of 0.5 M Bis-Tris-HCl, pH 6.9 and 1 μL of 14 M β-mercaptoethanol. […] The column was previously equilibrate with 100 mM KCl in buffer A. After loading the protein onto the column, the column was washed with 100 mM KCl in buffer A and the bound protein was eluted using a 10 mL linear (100-400 mM) gradient of KCl in buffer A followed by an additional 5 mL of buffer A containing 400 mM KCl, at flow rate of 0.25 mL/min. The enzyme consistently eluted at about 360 mM KCl. Fractions (0.5 mL each) were collected and protein content and purity were examined by SDS-PAGE gel electrophoresis followed by staining of the gel with Coomassie Brilliant Blue. Fractions which had the largest amount of pure protein were used for N-terminal sequencing, internal peptide sequencing, and initial enzyme characterization.

BAMT [5] = test: Kinetic properties of purified plant and E. coli expressed BAMT proteins; type: biochemical, Antirrhinum majus; conditions: purified protein; for KmSAM: Table 4
BAMT [6] = system: BAMT
Experimental: The optimum pH for BAMT activity was determined using two buffer systems. Reactions were carried out in 50 mM Tris-HCl buffer with pH ranging from 6.5 to 9.0 and in 50 mM Tris/Na phosphate/Na citrate buffer with pH ranging from 4.0 to 9.5. Final results are an average of four independent assays.

SAMT = biological target: T3, SAMT (Clarkia breweri, UniProt Q9SPV4); conditions: Ross et al., 1999, cited from earlier work
T3 sequence (Q9SPV4 1-359): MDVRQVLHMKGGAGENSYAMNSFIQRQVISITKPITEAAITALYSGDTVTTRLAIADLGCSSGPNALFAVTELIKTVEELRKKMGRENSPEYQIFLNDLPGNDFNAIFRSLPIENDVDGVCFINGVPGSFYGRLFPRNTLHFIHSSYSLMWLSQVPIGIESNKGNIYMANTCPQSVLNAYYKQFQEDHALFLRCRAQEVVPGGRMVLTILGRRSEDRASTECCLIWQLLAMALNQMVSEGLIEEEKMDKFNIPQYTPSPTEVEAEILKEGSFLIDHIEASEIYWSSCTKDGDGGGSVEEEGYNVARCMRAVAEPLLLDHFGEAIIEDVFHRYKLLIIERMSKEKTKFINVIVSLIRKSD

[7] = biological target: the molecule itself; test: gel filtration on Superdex 200-HR (100 kDa native) against SDS-PAGE (49 kDa subunit)
BAMT [8] = test: Specific activity of plant BAMT expressed in E. coli BL21 (DE3) cells
Experimental: The E. coli.-expressed BAMT protein was purified by nickel-based affinity chromatography (2.5 ml bed volume) according to the manufacturer's protocol (Novagen, Inc).

BAMT [9] = conditions: read-out: Km of plant BAMT protein for benzoic acid; Murfitt, et al., 2000; cited from earlier work
[10] = read-out: KmBA (Km for benzoic acid)

Nc1ncnc2c1ncn2[C@@H]1O[C@H](CSCC[C@H](N)C(=O)O)[C@@H](O)[C@H]1O [SAH, S-adenosyl-L- homocysteine]
Ki (E. coli BAMT protein; Ki value of SAH for BA, noncompetitive with respect to BA, SAM fixed at 150 μM): 14 µM | Ki (E. coli BAMT protein; Ki value of SAH for SAM, competitive with respect to SAM, BA fixed at 4 mM): 7 µM

[Mg+2] [Mg^2+]
Effect on BAMT activity (BAMT [1]; 5 mM Mg2+ in the assay reaction): not affected

N [NH4^+]
Stimulation of BAMT activity (factor) (BAMT [1]): 2

O=C(O)c1cccc(O)c1 [3-hydroxybenzoic acid]
BAMT activity with compound as substrate (BAMT [2]): no activity was detected

O=C(O)/C=C/c1ccc(O)cc1 [4-coumaric acid]
BAMT activity with compound as substrate (BAMT [2]): no activity was detected

O=C(O)/C=C/c1ccccc1O [2-coumaric acid]
BAMT activity with compound as substrate (BAMT [2]): no activity was detected

O=C(O)/C=C/c1ccccc1 [trans-cinnamic acid]
BAMT activity with compound as substrate (BAMT [3]): no activity | BAMT activity with compound as substrate (BAMT [2]): no activity was detected

O=C(O)c1ccc(O)cc1 [4-hydroxybenzoic acid]
BAMT activity with compound as substrate (BAMT [2]): no activity was detected

OCc1ccccc1 [benzyl alcohol]
BAMT activity with compound as substrate (BAMT [2]): no activity was detected | BAMT activity with compound as substrate (BAMT [2]; listed as benzylalcohol): no activity

O=C(O)/C=C/c1cccc(O)c1 [3-coumaric acid]
BAMT activity with compound as substrate (BAMT [2]): no activity was detected

O=C(O)c1ccccc1O [salicylic acid]
BAMT activity with compound as substrate (BAMT [3]): no activity | BAMT activity with compound as substrate (BAMT [2]): no activity was detected

S-adenosyl-L-methionine:benzoic acid carboxyl methyltransferase [BAMT]
Specific activity of purified BAMT protein (BAMT [4]): 327 pkat/mg protein | Km (BAMT [5]; read-out: Km for SAM): 28 µM | Km (BAMT [5]; [10]): 1100 µM | Percent of maximum activity (BAMT [6]; at both pH 6.5 and 8.5): 65% | Enzyme activity as percent of the optimal value (BAMT [6]; at pH 5.5 and 9.5): about 50%

[K+] [K^+]
Stimulation of BAMT activity (factor) (BAMT [1]): 2

B1: SAM:salicylic acid carboxyl methyl transferase (protein, listed as Clarkia breweri)
chain: T3 sequence (Q9SPV4 1-359)
notes: salicylic acid carboxyl methyl transferase from C. breweri
Km (SAMT; read-out: Km value for BA): 190 µM | Km (SAMT; read-out: Km value for SA): 24 µM | Km (SAMT; read-out: Km value for SAM): 9 µM

B2: S-adenosyl-L-methionine:benzoic acid carboxyl methyltransferase (BAMT) from snapdragon (Antirrhinum majus) petals (enzyme)
chain: T1 sequence (Q9FYZ9 1-364)
notes: Native protein from upper and lower petal lobes; The native enzyme is reported as a homodimer (100 kDa by gel filtration, 49 kDa on SDS-PAGE); In the immunoblots it was the denatured monomer after SDS-PAGE; also called BAMT protein; plant BAMT
binding result [7]: binds

B3: E. coli Met1: E. coli expressed snapdragon BAMT starting with the first methionine codon, N-terminal 6×His tag (protein, UniProt Q9FYZ9 1-364, looked up)
chain: T1 sequence (Q9FYZ9 1-364)
modifications: full-length N-terminal 6xHis tag
Vmax (BAMT [5]): 300 pkat/mg | kcat (turnover number of enzyme) (BAMT [5]): 0.03 s⁻¹ | KmSAM (BAMT [5]): 87 μm | Km (BAMT [5]; read-out: Km for SAM): 87 µM | Km (BAMT [5]; [10]): 1500 µM | Specific activity, crude lysates (BAMT [8]; E. coli BL21 (DE3) after IPTG induction): 9 pkat/mg protein | Specific activity of purified recombinant enzyme (BAMT [8]; purified from E. coli): 135 pcat/mg protein | Specific activity, purified protein (BAMT [8]; purified from E. coli on nickel column): 135 pkat/mg protein

B4: Plant: BAMT protein purified from upper and lower petal lobes of snapdragon flowers (protein)
chain: T1 sequence (Q9FYZ9 1-364)
Km (BAMT [9]): 1000 µM | Vmax (BAMT [5]): 220 pkat/mg | kcat (turnover number of enzyme) (BAMT [5]): 0.02 s⁻¹ | KmSAM (BAMT [5]): 28 μm | Km (BAMT [5]; read-out: Km for SAM): 28 µM | Km (BAMT [5]; [10]): 1100 µM
